Results as given in paper PMC8326396, “Label-free Electrochemical Impedance Spectroscopy Aptasensor for Ultrasensitive Detection of Lung Cancer Biomarker Carcinoembryonic Antigen”.

Molecular target: carcinoembryonic antigen (CEA) (UniProt P06731 35-685)
Assay: electrochemical impedance spectroscopy; CEA 0.2-15.0 ng/ml linear range; LOD 0.085 ng/ml (not a Kd); CEA incubated on electrode 1 h at 37 C (70 min found optimal), wash with 0.01 M [Fe(CN)6] PBS pH 7.4; EIS in 5 mM [Fe(CN)6]3-/4-, 0.1 M PBS pH 7.0, KCl (0.1 M or 1 M, stated inconsistently)
Details: protein: commercial

Chain of carcinoembryonic antigen (CEA) (P06731 35-685): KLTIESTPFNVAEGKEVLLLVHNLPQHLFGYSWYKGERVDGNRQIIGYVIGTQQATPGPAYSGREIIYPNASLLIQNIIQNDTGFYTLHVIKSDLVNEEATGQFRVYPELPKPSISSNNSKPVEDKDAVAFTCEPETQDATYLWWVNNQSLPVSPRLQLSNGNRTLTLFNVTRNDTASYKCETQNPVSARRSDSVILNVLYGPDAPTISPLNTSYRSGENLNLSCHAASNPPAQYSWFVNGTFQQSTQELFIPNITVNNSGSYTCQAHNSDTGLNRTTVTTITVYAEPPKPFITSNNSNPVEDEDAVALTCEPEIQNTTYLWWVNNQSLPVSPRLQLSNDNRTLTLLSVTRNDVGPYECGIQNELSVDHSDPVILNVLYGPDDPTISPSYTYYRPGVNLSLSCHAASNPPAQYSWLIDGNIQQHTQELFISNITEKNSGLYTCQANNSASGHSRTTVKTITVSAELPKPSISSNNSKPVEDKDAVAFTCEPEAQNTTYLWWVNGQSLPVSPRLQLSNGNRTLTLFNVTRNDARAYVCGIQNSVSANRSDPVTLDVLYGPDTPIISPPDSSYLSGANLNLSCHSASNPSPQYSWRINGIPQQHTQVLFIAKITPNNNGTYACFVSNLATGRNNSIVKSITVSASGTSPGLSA

B1: CEA aptamer (CEA-A) (ssDNA)
DNA: ATACCAGCTTATTCAATT
modifications: 5'-SH (thiol)
Does B1 bind?
Result: binds
